Test results: the RNAGym collection of RNA variant scans (doi:10.7554/elife.90254)

B1: OR4K15 (parent)
chain: GUUAACGGUCAUAGGCCAUGGAAACUAGGAGCACCAUUUCGCUGCCAGUGAAGAAAUGAACAAAGAAAAUCUGGGCCAGGCAGGCAUCAAAAGAAAUAGUCUUGCGCUCAACCAGAAAGUCUGUAAUCAUUUUAAGGGUA

Variants of: B1
Assay: self-cleavage, relative activity (ratio to wild type); higher = more cleavage; in vitro, sequencing; the parent is a self-cleaving ribozyme

Variant	self-cleavage
A78U A117U	0.3
G75A A116U	0.05
G75A A82G	0.12
G74C A110U	0.14
A78G A126C	0.09
A78U U97C	0.36
G73A U108C	0.01
G79A A94U	0.15
G79C A91G	0.09
C77A A96G	1
A78U U127A	0.8
C81A A90G	0.07
A78C C109U	0.19
G74U G119A	0.19
G73A A94G	0.19
A78U A91U	0.8
A78G A90G	0.24
A78G U130C	0.3
A78G U130A	0.17
A78G U130G	0
A78C U131C	0.17
A78U U87C	0.31
G75U C85U	0.21
G75C A129G	0.07

Variant	self-cleavage
C76U A96C	0.1
A78G A116G	0.15
C81A U103C	0.13
G75A A95G	0.05
G74C U127C	0.13
A78G U87A	0.08
A78G U87C	0.05
G75C U103G	0.02
G75C U103C	0.12
C76U U87C	0.17
A78U U100A	0.07
A82G A116G	0.26
U72G U120C	0.13
G73U A78U	0.15
C77U U102A	1.57
G73A C121G	0.45
G75A A125G	0.03
A78C U133C	0.24
G74C A96G	0.29
G79U G99A	0.03
G80A U108C	0.01
G80A A135G	0.31
C77A A89G	0.61
C81U A96G	0.43

Variant	self-cleavage
C76A U120A	0.19
A82G A117C	0.06
A78U U108A	0.01
A78U U108G	0.01
A82C A135G	0.15
G79A A129C	0.05
G79A A129G	0.17
C81U A134G	0.53
A78G G106A	0.03
G75C U97C	0.12
U72C U108C	0.01
U72C U108A	0.07
U72C A117G	0.22
G75C A98G	0.07
G75A G119A	0.17
G73A A117G	0.15
A78G A82U	0.19
C81U U131C	0.37
A78U A126G	0.17
G75A A78U	0.09
U72G A95G	0.43
U72G A95U	0.12
U72C C107U	0.01
C76G A96U	0.09

Variant	self-cleavage
G75A A91G	0.14
C76A U131C	0.08
C76U A118G	0.1
G74U A111G	0.04
G74U C121A	0.36
A78C U132C	0.33
G74A A110G	0.02
A78U A134G	0.31
A78U A110C	0.05
A78U A110G	0.05
C76A A117G	0.18
U72G A78G	0.39
A82C A94G	0.19
G75A U87C	0.14
G74U A116U	0.03
G74A A96G	0.24
G74A A96C	0.14
C76U A78C	0.11
G79C U97A	0.05
U72G A135G	0.22
G75A	0.11
G75C	0.17
G75U	0.12
G74A A125G	0.05

Variant	self-cleavage
A78G U103C	0.11
G73A A92G	0.2
G73U A126G	0.07
A82G A98G	0.27
G79A U108A	0.02
U72C U133C	0.13
A78G A96U	0.4
C77A U100C	0.61
G79A	0.14
G79C	0.08
G79U	0.06
G73U A86G	0.17
A78G A91U	0.22
A78G A91G	0.13
C77U A126U	1.88
G79U U87C	0.11
C77U A89G	2.1
A82G A96U	0.45
A82G A96G	0.59
A82G A86U	0.88
G75U U127C	0.11
A78G A114G	0.05
C77A A78G	0.53
G80U A86U	0.23

Variant	self-cleavage
G74A A118G	0.14
G74A A82G	0.26
G79A U127C	0.06
A82G A110G	0.07
A78C A96G	0.27
A78C G106A	0.03
C77U G79U	0.13
A78U U120A	0.18
C77U U130C	1.61
G73A A90G	0.03
A78G G80A	0.13
C81A A86G	0.16
A78G A129U	0.25
U72C A129U	0.07
G79A A110U	0.24
G74A A117U	0.19
G74A A117G	0.2
A82G A91U	0.59
G74A U103C	0.08
G73U C105U	0.01
G73U A118G	0.02
C81A A82G	0.13
U72G C101A	0.1
A78G A94G	0.19

Variant	self-cleavage
G74U U87A	0.15
G74A A140U	0.22
A82C A114G	0.05
A82C A114U	0.02
G73A U120C	0.07
G80A U132C	0.08
A78C A116G	0.13
U72C A134G	0.16
G75U A117G	0.15
G75A G93A	0.14
C77U A117G	2.83
G75C A110G	0.02
A78G U127C	0.22
A78G U127G	0.27
G79A A140G	0.13
A82C C109U	0.07
G73A U122A	0.15
A78C U122C	0.1
G79U U132C	0.09
G79A U132C	0.1
U72G U102A	0.11
A78U A111G	0.02
U72G U97G	0.3
